According to patent US20050221381A1, “Method for isolating ligands” (priority 2002, published 2005):
Read-outs that look alike come from different tables or passages of the source.

Experiments:
[1] = test system: PBMC (CD4 and CD8 positive T-cell compartments); assay: Intracellular IFN-γ staining combined with surface staining for CD4, CD8, CD69 (FACS); type: cell-based, human; conditions: donor 10687, peptide 80 μg/ml (FIG. 11)
Protocol: To distinguish between CD8-positive CTL mediated or CD4-positive HTL mediated reactivity, intracellular cytokine staining combined with staining for surface markers was performed: after thawing, PBMNC were kept overnight (37° C., 5% CO2) in RPMI1640 with 10% human serum type AB (BioWhittaker). Next day aliquots of 2 million PBMNC were incubated with peptide (80 μg/ml) or Concanavalin A (SIGMA). After 1 h, 10 μg/ml brefeldin A (SIGMA) were added and incubation was continued for 5 hours. Surface staining for CD4 (phycoerythrin), CD8 (cychrome), CD69 (allophycocyanine) was done with antibodies labelled as indicated (Pharmingen, San Diego, Calif., USA). After fixation with 1% para-formaldehyde in PBS, cells were permeabilized by incubating for 15 min in 0.5% BSA/0.1% Na-azide/0.1% saponin in PBS. Intracellular cytokines were stained with anti-IFN-γ (FITC) antibody 4S.B3 (Pharmingen). Samples (100,000 events in the lymphocyte gate) were read on a FACScalibur (Becton Dickinson).
FIG. 11: Confirmation of simultaneous CD4+ and CD8+ T-cell responses against CMVpp65 15mers 469, 470 by intracellular IFN-γ staining. PBMC from 2 donors (10687, 10788) were stimulated with either ConA as positive control (1st column), 15mers containing both putative class I and class II epitopes (columns 2 and 3) or medium as negative control (right column). Cells were stained for intracellular IFN-γ (x-axis) or surface the T-cell differentiation markers CD4 or CD8 (y-axis). Percentage in upper-right quadrant is indicated, numbers significant over background are shown boldface.

[2] = target: T1, soluble DRB1*0401 molecules (DR4) (Homo sapiens, UniProt P01903+P01911, A100K/A169T/F76Y/I96L/K127E/L162R/M171V/N62H/P40V/Q125Y/R42H/S133A/S149N/S66Y/V115G/V209L/W38E); type: binding; parameters: key: −: no binding; +/−: weak binding; +: intermediate binding; ++: strong binding; conditions: individual pp65 15mer, SDS-stability assay
T1 construct: Soluble HLA class I A*0201 and HLA class II DRA1*0101/DRB1*0101/Ii, DRA1*0101/DRB1*0401/Ii and DRA1*0101/DRB1*0404/Ii molecules were expressed in SC-2 cells; made in house; host or cells: SC-2 cells

[3] = test system: CD4+ T cells; conditions: healthy, CMV-exposed human subjects; partially or fully identical sequences; cited from earlier work
[4] = test system: HLA-DRB1*0401-transgenic mice splenocytes; type: in vivo, mouse; parameters: key to DRB1*0401 mice total SC (T cell response) / DRB1*0401 mice CD4+ (T cell response): −: no binding/T cell response; +/−: weak binding/T cell response; +: intermediate binding/T cell response; ++: strong binding/T cell response
[5] = target: T1, soluble DRB1*0401 molecules (DR4); type: binding; parameters: key to Binding to DRB1 *0401: −: no binding/T cell response; +/−: weak binding/T cell response; +: intermediate binding/T cell response; ++: strong binding/T cell response; conditions: soluble DRB1*0401 molecules
[6] = target: DRB1*1101 (Homo sapiens, UniProt P01903+P01911, A100R/A169T/A87E/I96F/K41T/L162R/M171V/P40S/Q125H/Q178H/Q39Y/Q99D/R42S/S66Y/T262R/V115G/W38E); assay: Peptide-competition assay with biotinylated CLIP peptide (ELISA); type: binding; parameters: key: −: no binding/T cell response; +/−: weak binding/T cell response; +: intermediate binding/T cell response; ++: strong binding/T cell response; conditions: DRB1*1101
Protocol: (§1) The binding affinities to DRB1*0701 and DRB1*1101 were tested by a peptide-competition assay (Reay et al., 1992). Briefly, binding of the biotinylated CLIP peptide (reference peptide) has been used for monitoring of HLA:peptide complex formation. […] In the case of lower affinity peptides they should be added in excess to the reference peptide to compete for occupancy of HLA binding grove. […] Alternatively, comparing of the amount of reference peptide bound to HLA molecules in the presence or absence of competitor peptide one can determine the binding activity of the peptide of interest.
(§2) In the present peptide-competition assay conditions of peptide binding were similar to described above. Soluble HLA molecules were used in the concentration of 0.5 μM and biotinylated CLIP was added to all samples in the final concentration of 2 μM. Competitor peptides were added in three different concentrations: 0.25, 5 and 100 μM. Binding reaction was performed in PBS buffer (pH 7.4) for 18 hours at 37° C. […] Briefly, MaxiSorb 96-well plates (Nunc, Denmark) were coated with mouse anti-αβ antibody L243 (purified from ATCC HB-55) by overnight incubation with 50 μl of 10 μg/ml dilution in PBS at 4° C. Non-specific binding to the plastic was blocked by incubation with T-PBS containing 3% of BSA for 2 hours at 37° C. and binding reactions were then “captured” for 2 hours at room temperature. […] The optical density at 405 nm was measured on a microplate reader SUNRISE (Tecan).

[7] = target: DRB1*0701 (Homo sapiens, UniProt P01903+P01911, A100R/A102G/A103Q/D57E/D86V/E43K/F76Y/K127E/L162R/M171V/P40G/Q125H/Q99D/R33Q/R42Y/R54Q/S133A/S66F/T210M/V115G/Y107V/Y59L/Y89S); assay: as above; type: binding; parameters: key: −: no binding/T cell response; +/−: weak binding/T cell response; +: intermediate binding/T cell response; ++: strong binding/T cell response; conditions: DRB1*0701
Protocol: as §1, §2

[8] = target: T2, soluble DRB1*0404 molecules (Homo sapiens, UniProt P01903+P01911, A100R/A169T/F76Y/I96L/K127E/L162R/M171V/N62H/P40V/Q125Y/R42H/S133A/S149N/S66Y/V209L/W38E); assay: Peptide binding assay, SDS-stability assay; parameters: key: −: no binding/T cell response; +/−: weak binding/T cell response; +: intermediate binding/T cell response; ++: strong binding/T cell response; conditions: soluble DRB1*0404 molecules
T2 construct: Soluble HLA class I A*0201 and HLA class II DRA1*0101/DRB1*0101/Ii, DRA1*0101/DRB1*0401/Ii and DRA1*0101/DRB1*0404/Ii molecules were expressed in SC-2 cells; made in house; host or cells: SC-2 cells

[9] = test system: DRB1*0401, DRB1*0101, DRB1*0404, DRB1*0701 and DRB1*1101; assay: Binding to soluble HLA molecules of different allels (promiscuity); parameters: species or system human
Protocol: In peptide binding reactions HLA molecules were used in a concentration of 0.5 μM, and each single peptide was added in 10-fold molar excess (5 μM) if not mentioned differently. […] The reaction was performed in PBS buffer (pH 7.4) at room temperature for 48 hours in the presence of a protease inhibitor cocktail (Roche) and 0.1% octyl-b-D-glucopyranoside (Sigma).
Peptide binding was evaluated in an SDS-stability assay (Gorga et al., 1987): trimeric HLA class II ab-peptide complexes are resistant to SDS and consequently appear as ˜60 kDa band in SDS-PAGE Western blot analysis. Individual HLA class II α and β chains not stabilized by a peptide binding with intermediate to high affinity migrate as ˜35 kDa and ˜30 kDa bands, respectively.
as §1, §2
Some of the identified DRB1*0401 binding peptides, as well as others chosen by prediction algorithms were also tested for binding to soluble HLA molecules of different allels: DRB1*0101, DRB1*0404, DRB1*0701 and DRB1*1101 (Table 3).

[10] = target: T3, soluble DRB1*0101 molecules (Homo sapiens, UniProt P01903+P01911, A100R/D57E/F55L/F60I/F76Y/I96L/L162R/M171V/P40L/Q125E/R42F/V115G/Y59C); assay: Peptide binding assay, SDS-stability assay; parameters: key: −: no binding/T cell response; +/−: weak binding/T cell response; +: intermediate binding/T cell response; ++: strong binding/T cell response; conditions: soluble DRB1*0101 molecules
T3 construct: Soluble HLA class I A*0201 and HLA class II DRA1*0101/DRB1*0101/Ii, DRA1*0101/DRB1*0401/Ii and DRA1*0101/DRB1*0404/Ii molecules were expressed in SC-2 cells; made in house; host or cells: SC-2 cells

[11] = target: T3, soluble DRB1*0101 molecules; assay: Peptide binding assay, SDS-stability assay; parameters: key: +++: high binding affinity; ++: moderate binding affinity; +: low binding affinity; −: no binding; conditions: individual pp65 15mer
[12] = target: T1, soluble DRB1*0401 molecules (DR4); type: binding; parameters: key: +++: high binding affinity; ++: moderate binding affinity; +: low binding affinity; −: no binding; conditions: individual pp65 15mer, SDS-stability assay
[13] = target: T2, soluble DRB1*0404 molecules; assay: Peptide binding assay, SDS-stability assay; parameters: key: +++: high binding affinity; ++: moderate binding affinity; +: low binding affinity; −: no binding; conditions: individual pp65 15mer
[14] = test system: PBMC from CMV seropositive donors; type: cell-based, human
[15] = IFN-gamma ELISpot, enriched CD4+ fraction of splenocytes of HLA-DR4 transgenic mice vaccinated with the longer peptide, ex vivo re-stimulation
[16] = IFN-gamma ELISpot, total splenocytes of HLA-DR4 transgenic mice vaccinated with the longer peptide, ex vivo re-stimulation

Sequence | Binding to DRB1*0401 [2] | Specific CD4+ T cells response described earlier [3] | DRB1*0401 mice CD4+ (T cell response) [4, 15] | DRB1*0401 mice total SC (T cell response) [4, 16] | Binding to DRB1 *0401 [5] | Binding to DRB1*0101 [11] | Binding to DRB1*0401 [12] | other results
AGILARNLVPMVATV [Peptide 489] |  |  |  |  |  |  |  | Intracellular IFN-γ in CD4 and CD8 positive T-cell compartments [1]: only CD8 mediated IFN-γ secretion
EPDVYYTSAFVFPTK [Peptide 177] | + | capable to evoke specific CD4+ T cells response | + | + | + |  |  | Binding to DRB1 1101 [6]: +; Binding to DRB1 *0701 [7]: −; Binding to DRB1*0404 [8]: −; Affinity for several HLA molecules (promiscuity) [9]: affinity for at least two HLA molecules; Binding to DRB1*0101 [10]: ++
EPMSIYVYALPLKML [Peptide 107] |  |  |  |  |  | − | − | 
GGAIAGASTSAGRKR [Peptide 423] |  |  |  |  |  |  | − | Binding to DRB1*0404 [13]: −; Induction of IFN-gamma secretion in T cells / PBMC from CMV seropositive donors [14]: can induce functional, IFN-gamma secreting T cells in humans
IYVYALPLKMLNIPS [Peptide 111] |  |  |  |  |  | − | − | 
KEPDVYYTSAFVFPT [Peptide 176] | +/− |  | + | + | +/− | − |  | 
LKYQEFFWDANDIYR [Peptide 508] | +/− | capable to evoke specific CD4+ T cells response | ++ | ++ | +/− |  |  | 
NLKYQEFFWDANDIY [Peptide 507] | +/− | capable to evoke specific CD4+ T cells response | + | ++ | +/− |  |  | Binding to DRB1 1101 [6]: −; Binding to DRB1 *0701 [7]: −; Binding to DRB1*0404 [8]: −; Binding to DRB1*0101 [10]: −
PQYSEHPTFTSQYRI [Peptide 361] |  | capable to evoke specific CD4+ T cells response |  |  |  |  |  | DRB1*0401 mice CD4+ (T cell response) ([4]; mouse, in vivo): ++; DRB1*0401 mice total SC (T cell response) ([4]; mouse, in vivo, sc): +
QWKEPDVYYTSAFVF [Peptide 174] |  |  | +/− | +/− | − | − | − | 
TDEDSDNEIHNPAVF [Peptide 468] |  |  |  |  |  |  | − | Binding to DRB1*0404 [13]: −
